B1: D09 (dsRNA)
RNA 1: CAGACACCUAGUCCUUCCGAUGGAAGC
RNA 2: UUCCAUCGGAAGGACUAGGUGUCUG
B2: D25 (dsRNA)
RNA 1: GCACCCCCACCUCUGGACUUGCCUUUC
RNA 2: AAGGCAAGUCCAGAGGUGGGGGUGC
B3: D08 (dsRNA)
RNA 1: CCAGAAGAACUUUUAGGCCGCUCAAUU
RNA 2: UUGAGCGGCCUAAAAGUUCUUCUGG
B4: D11 (dsRNA)
RNA 1: ACCUGAGCCUAAUAGUCCCAGUGAAUA
RNA 2: UUCACUGGGACUAUUAGGCUCAGGU
B5: D12 (dsRNA)
RNA 1: UACUCAGGACACAGAUUUAGACUUGGA
RNA 2: CAAGUCUAAAUCUGUGUCCUGAGUA
B6: D10 (dsRNA)
RNA 1: CCUGAGGAAGAACUAAAUCCAAAGAUA
RNA 2: UCUUUGGAUUUAGUUCUUCCUCAGG
B7: D03 (dsRNA)
RNA 1: CCGGUUGAAUCUUCAGAUAUGAAAA
RNA 2: UUUUCAUAUCUGAAGAUUCAACCGGUU
B8: D06 (dsRNA)
RNA 1: GGAUAGUGAUAUGGUCAAUGAAUUC
RNA 2: GAAUUCAUUGACCAUAUCACUAUCCAC
B9: D02 (dsRNA)
RNA 1: GCUGAUUUGUGAACCCAUUCCUCAC
RNA 2: GUGAGGAAUGGGUUCACAAAUCAGCAC
B10: D01 (dsRNA)
RNA 1: ACCGGUUGAAUCUUCAGAUAUGAAA
RNA 2: UUUCAUAUCUGAAGAUUCAACCGGUUU
B11: D04 (dsRNA)
RNA 1: GUUCCUGAGGAAGAACUAAAUCCAA
RNA 2: UUGGAUUUAGUUCUUCCUCAGGAACUG
B12: D05 (dsRNA)
RNA 1: GGAACAUGAUGGUUCACUUUUUCAA
RNA 2: UUGAAAAAGUGAACCAUCAUGUUCCAU
B13: D07 (dsRNA)
RNA 1: GGAUAAAAUUCUCAAUUCAGAGAAA
RNA 2: UUUCUCUGAAUUGAGAAUUUUAUCCAA

biological target: DICER;ARGONAUTE2 (AGO2) (human;human, UniProt Q9UPY3;Q9UKV8 1-1922;1-859, |); assay: competition (fluorogenic siRNA processing); 80 nM BoPsi664, 30 nM each enzyme; Assay Buffer with 1 mM free Mg2+ (full composition not in the material), 37 C; indirect read-out by competitive inhibition of fluorogenic siRNA processing, no d; conditions: protein: recombinant;recombinant, tags: C-terminal 6xHis with TEV site, tag removed by TEV;N-terminal 6xHis with TEV site, copies: 1;1, 3' overhang 2 nt on strand 1, other end blunt

Binder | IC50 [nM]
B1 | 767
B2 | 796
B3 | 1060
B4 | 364
B5 | 453
B6 | 633

same assay, conditions: protein: recombinant;recombinant, tags: C-terminal 6xHis with TEV site, tag removed by TEV;N-terminal 6xHis with TEV site, copies: 1;1, 3' overhang 2 nt on strand 2, other end blunt

Binder | IC50 [nM]
B7 | 150
B8 | 474
B9 | 142
B10 | 56
B11 | 180
B12 | 209
B13 | 282
